# In publication PMC11770335, “Transcriptome-scale analysis uncovers conserved residues in the hydrophobic core of the bacterial RNA chaperone Hfq required for small regulatory RNA stability”:
# Experiments:
# Settings in all cases: protein: recombinant; chain copies: 6; single strand
# Hfq V22A [1] = target: T1, Hfq V22A (Escherichia coli, UniProt P0A6X3 1-102, V22A); test: ITC; no Mg2+ listed; N 1.43 RNA/hexamer; ITC: 20 mM Tris-HCl pH 7.5, 100 mM NaCl, 20 mM KCl, 30°C; plus 5 mM MgCl2 for U6; Hfq hexamer 10-18 µM in cell
# Hfq G34A [2] = target: T2, Hfq G34A (Escherichia coli, UniProt P0A6X3 1-102, G34A); test: ITC; no Mg2+ listed; N 0.75 RNA/hexamer; ITC: 20 mM Tris-HCl pH 7.5, 100 mM NaCl, 20 mM KCl, 30°C; plus 5 mM MgCl2 for U6; Hfq hexamer 10-18 µM in cell
# Hfq WT [3] = target: T3, Hfq WT (Escherichia coli, UniProt P0A6X3 1-102); test: ITC; no Mg2+ listed; N 1.31 RNA/hexamer; ITC: 20 mM Tris-HCl pH 7.5, 100 mM NaCl, 20 mM KCl, 30°C; plus 5 mM MgCl2 for U6; Hfq hexamer 10-18 µM in cell
# Hfq G34A [4] = target: T2, Hfq G34A; test: ITC; 5 mM MgCl2; N 0.83 RNA/hexamer; second weaker event offset; ITC: 20 mM Tris-HCl pH 7.5, 100 mM NaCl, 20 mM KCl, 30°C; plus 5 mM MgCl2 for U6; Hfq hexamer 10-18 µM in cell
# Hfq V22A [5] = target: T1, Hfq V22A; test: ITC; 5 mM MgCl2; N 1.02 RNA/hexamer; second weaker event offset; ITC: 20 mM Tris-HCl pH 7.5, 100 mM NaCl, 20 mM KCl, 30°C; plus 5 mM MgCl2 for U6; Hfq hexamer 10-18 µM in cell
# Hfq WT [6] = target: T3, Hfq WT; test: ITC; 5 mM MgCl2; N 0.96 RNA/hexamer; second weaker event offset; ITC: 20 mM Tris-HCl pH 7.5, 100 mM NaCl, 20 mM KCl, 30°C; plus 5 mM MgCl2 for U6; Hfq hexamer 10-18 µM in cell
# Hfq V22A [7] = target: T1, Hfq V22A; test: X-ray crystallography; one pA4 traced at distal face (Methods says proximal); 0.2 M LiSO4, 0.05 M zinc acetate, Bis-Tris pH 7.5; ITC: 20 mM Tris-HCl pH 7.5, 100 mM NaCl, 20 mM KCl, 30°C; plus 5 mM MgCl2 for U6; Hfq hexamer 10-18 µM in cell
binder,measurement,setting,value
AAAAAAAAAAAAAAAAA (ssRNA) [A17],Kd,Hfq V22A [1],10.5 ± 3.4 nM
same,Kd,Hfq G34A [2],26.3 ± 13.2 nM
same,Kd,Hfq WT [3],51.5 ± 18 nM
UUUUUU (ssRNA) [U6],Kd,Hfq G34A [4],19.3 ± 8.3 nM
same,Kd,Hfq V22A [5],56.6 ± 7.5 nM
same,Kd,Hfq WT [6],42.2 ± 12.8 nM
AAAA (ssRNA) [pA4],binding result,Hfq V22A [7],binds
